Source: PMC7611088 (Nature methods, 2021)

Target: MbNbF3^c7HopQ (H. pylori)
Assay: BLI

B1: membrane scaffold protein MSP1D1 (other)
chain: STFSKLREQLGPVTQEFWDNLEKETEGLRQEMSKDLEEVKAKVQPYLDDFQKKWQEEMELYRQKVEPLRAELQEGARQKLHELQEKLSPLGEEMRDRARAHVDALRTHLAPYSDELRQRLAARLEALKENGGARLAEYHAKATEHLSTLSEKAKPALEDLRQGLLPVLESFKVSFLSALEEYTKKLNTQ
modifications: biotinylated with EZ-link NHS-Biotin (biotin/antigen ratio 2 - 2.5) for BLI only
**Q.** Does B1 bind?
**A.** Result: binds
